These are literature values, as cited in paper PMC3585250.

Usually Kd stands for the constant that tells how readily two partners part at equilibrium.

This series has as its target integrin αvβ3 (Homo sapiens) (UniProt P06756).
Sequence of UniProt P06756 (P06756 31-1048, chain 1 of 2): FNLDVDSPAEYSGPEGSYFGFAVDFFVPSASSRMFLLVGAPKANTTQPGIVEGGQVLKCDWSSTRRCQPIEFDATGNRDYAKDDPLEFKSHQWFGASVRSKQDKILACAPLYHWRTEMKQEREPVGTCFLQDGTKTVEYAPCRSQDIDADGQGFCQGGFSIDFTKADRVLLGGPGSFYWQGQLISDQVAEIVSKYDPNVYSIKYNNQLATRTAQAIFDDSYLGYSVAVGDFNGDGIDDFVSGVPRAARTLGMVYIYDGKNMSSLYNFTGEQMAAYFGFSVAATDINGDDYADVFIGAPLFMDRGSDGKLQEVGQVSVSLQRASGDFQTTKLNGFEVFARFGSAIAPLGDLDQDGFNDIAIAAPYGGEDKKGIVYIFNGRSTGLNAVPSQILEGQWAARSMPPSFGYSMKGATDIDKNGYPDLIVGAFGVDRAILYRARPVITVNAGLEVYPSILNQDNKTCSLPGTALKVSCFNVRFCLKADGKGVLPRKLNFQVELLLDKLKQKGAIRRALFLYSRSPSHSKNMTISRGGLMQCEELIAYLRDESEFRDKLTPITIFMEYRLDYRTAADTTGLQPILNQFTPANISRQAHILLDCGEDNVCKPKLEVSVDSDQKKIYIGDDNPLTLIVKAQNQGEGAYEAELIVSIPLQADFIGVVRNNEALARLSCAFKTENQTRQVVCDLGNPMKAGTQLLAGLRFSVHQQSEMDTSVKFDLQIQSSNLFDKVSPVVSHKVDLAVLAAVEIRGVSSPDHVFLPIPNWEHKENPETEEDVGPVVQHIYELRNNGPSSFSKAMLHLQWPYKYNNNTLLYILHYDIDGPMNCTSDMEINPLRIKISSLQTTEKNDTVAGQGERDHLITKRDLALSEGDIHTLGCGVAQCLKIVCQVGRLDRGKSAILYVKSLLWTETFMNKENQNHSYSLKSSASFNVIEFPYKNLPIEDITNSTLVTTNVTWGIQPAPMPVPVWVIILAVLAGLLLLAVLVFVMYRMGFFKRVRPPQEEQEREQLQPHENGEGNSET
Sequence of UniProt P06756 (P05106 27-788, chain 2 of 2, further chain): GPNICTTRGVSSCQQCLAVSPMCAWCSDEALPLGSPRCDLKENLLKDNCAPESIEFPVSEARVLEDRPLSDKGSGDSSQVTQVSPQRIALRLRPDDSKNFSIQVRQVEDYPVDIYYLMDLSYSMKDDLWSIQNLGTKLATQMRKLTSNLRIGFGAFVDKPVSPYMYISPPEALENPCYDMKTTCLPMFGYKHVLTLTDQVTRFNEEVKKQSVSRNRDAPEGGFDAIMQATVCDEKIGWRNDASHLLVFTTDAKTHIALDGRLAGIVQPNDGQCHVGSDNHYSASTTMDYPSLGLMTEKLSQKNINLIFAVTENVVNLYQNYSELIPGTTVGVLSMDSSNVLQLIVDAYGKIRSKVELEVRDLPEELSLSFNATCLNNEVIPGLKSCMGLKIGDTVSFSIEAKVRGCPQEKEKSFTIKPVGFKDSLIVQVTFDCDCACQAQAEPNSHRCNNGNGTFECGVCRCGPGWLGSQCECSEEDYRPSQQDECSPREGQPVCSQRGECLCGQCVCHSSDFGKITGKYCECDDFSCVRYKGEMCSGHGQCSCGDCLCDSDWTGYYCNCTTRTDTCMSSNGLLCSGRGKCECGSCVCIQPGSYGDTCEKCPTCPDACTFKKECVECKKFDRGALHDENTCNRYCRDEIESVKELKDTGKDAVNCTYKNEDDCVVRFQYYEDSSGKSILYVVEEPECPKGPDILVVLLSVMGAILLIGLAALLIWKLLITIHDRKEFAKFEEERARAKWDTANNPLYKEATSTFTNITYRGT

For FGF1 (from UniProt P05230), the Kd is 1 µM.
